Data reported in patent publication US20020090696.

Experiments:
[1] = target: GST-2.5 fusion protein [GST: P08515]

B1: Rat SAPKβ (protein)
chain: MSLHFLYYCSEPTLDVKIAFCQGFDKHVDVSSVVKHYNMSKSKVDNQFYSVEVGDSTFTVLKRYQNLKPIGSGAQGIVCAAYDAVLDRNVAIKKLSRPFQNQTHAKRAYRELVLMKCVNHKNIISLLNVFTPQKTLEEFQDVYLVMELMDANLCQVIQMELDHERMSYLLYQMLCGIKHLHSAGIIHRDLKPSNIVVKSDCTLKILDFGLARTAGTSFMMTPYVVTRYYRAPEVILGMGYKENVDIWSVGCIMGEMVRHKILFPGRDYIDQWNKVIEQLGTPCPEFMKKLQPTVRNYVENRPKYAGLTFPKLFPDSLFPADSEHNKLKASQARDLLSKMLVIDPAKRISVDDALQHPYINVWYDPAEVEAPPPQIYDKQLDEREHTIEEWKELIYKEVMNSEEKTKNGVVKGQPSPSGAAVNSSESLPPSSSVNDISSMSTDQTLASDTDSSLEASAGPLGCCR
Question: With B1 as the protein, how does the “in vitro kinase assay, phosphorylation of protein 2.5” value [1] read?
Answer: Rat SAPKβ ... phosphorylates protein 2.5

Question: What about the “in vitro phosphorylation assay” value [1] of the same protein?
Answer: hJIP1/IB1 is a substrate for JNK3 in the same in vitro phosphorylation assay

Question: And the “in vitro phosphorylation of a GST c-Jun fusion protein” value [1]?
Answer: this protein greatly reduces phosphorylation of a GST c-Jun fusion protein in a concentration dependent manner

Question: What about the “phosphorylation of GST-c-Jun in a kinase reaction with c-Jun and rSAPKβ” value [1] of the same protein?
Answer: protein 2.5 shows a dose-dependent inhibition of phosphorylation of GST-c-Jun

Question: And the “phosphorylation of GST-c-Jun in a kinase reaction with c-Jun and rSAPKβ” value (GST [GST: P08515])?
Answer: GST alone shows no effect.
